In publication PMC9482650, “Quantitative fragmentomics allow affinity mapping of interactomes” (Nature Communications, 2022):
One block for each binder: values may come before it.

What was measured:
Assay in all cases: holdup assay
Parameters in all cases: key: below the threshold = too weak to quantify, mostly under pKd 3.1 to 4
[1] = target: GORASP1, Q9BQQ3
[2] = target: T1, DFNB31_3, Q9P202
T1 sequence (Q9P202 811-907, limits assumed, looked up): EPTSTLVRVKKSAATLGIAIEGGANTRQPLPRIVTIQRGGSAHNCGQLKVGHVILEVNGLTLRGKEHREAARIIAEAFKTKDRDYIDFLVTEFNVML

[3] = target: GRIP2_6, Q9C0E4
GRIP2_6, Q9C0E4, sequence (Q9C0E4 648-740): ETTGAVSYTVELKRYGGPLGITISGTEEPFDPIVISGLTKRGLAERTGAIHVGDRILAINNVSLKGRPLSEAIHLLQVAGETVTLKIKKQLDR

[4] = target: DLG1_2, Q12959
DLG1_2, Q12959, sequence (Q12959 314-412): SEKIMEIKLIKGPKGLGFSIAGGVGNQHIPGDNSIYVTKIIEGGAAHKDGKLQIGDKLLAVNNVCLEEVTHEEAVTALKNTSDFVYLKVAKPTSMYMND

[5] = target: T2, APBA2_2, Q99767
T2 sequence (Q99767 654-744, limits assumed, looked up): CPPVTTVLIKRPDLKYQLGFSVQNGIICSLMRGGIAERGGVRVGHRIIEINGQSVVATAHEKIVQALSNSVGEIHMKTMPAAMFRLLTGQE

[6] = target: T3, ARHGAP21, Q5T5U3
T3 sequence (Q5T5U3 45-169, limits assumed, looked up): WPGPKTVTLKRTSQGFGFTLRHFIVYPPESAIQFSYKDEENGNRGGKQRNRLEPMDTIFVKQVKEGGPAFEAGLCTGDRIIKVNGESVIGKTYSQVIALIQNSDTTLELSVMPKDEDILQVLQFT

[7] = target: GRIP2_3, Q9C0E4
GRIP2_3, Q9C0E4, sequence (Q9C0E4 238-339): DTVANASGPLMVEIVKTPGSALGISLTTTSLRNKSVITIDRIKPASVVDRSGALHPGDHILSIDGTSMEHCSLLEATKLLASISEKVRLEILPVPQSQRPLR

[8] = target: GRIP2_7, Q9C0E4
GRIP2_7, Q9C0E4, sequence (Q9C0E4 934-1023): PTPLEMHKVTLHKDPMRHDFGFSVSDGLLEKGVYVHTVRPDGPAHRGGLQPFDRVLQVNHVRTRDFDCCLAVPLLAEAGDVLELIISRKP

[9] = target: GIPC2, Q8TF65
GIPC2, Q8TF65, sequence (Q8TF65 112-203): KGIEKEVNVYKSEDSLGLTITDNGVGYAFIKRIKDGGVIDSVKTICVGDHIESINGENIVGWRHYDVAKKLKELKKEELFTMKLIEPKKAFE

[10] = target: T4, DLG3_2, Q92796
T4 sequence (Q92796 221-321, limits assumed, looked up): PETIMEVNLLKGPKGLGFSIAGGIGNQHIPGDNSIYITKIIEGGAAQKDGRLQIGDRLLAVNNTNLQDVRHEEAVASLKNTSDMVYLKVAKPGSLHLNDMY

[11] = target: T5, TJP3_3, O95049
T5 sequence (O95049 375-456, limits assumed, looked up): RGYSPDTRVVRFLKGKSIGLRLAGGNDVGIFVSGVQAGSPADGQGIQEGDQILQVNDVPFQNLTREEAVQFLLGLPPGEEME

[12] = target: T6, DFNB31_1, Q9P202
T6 sequence (Q9P202 135-233, limits assumed, looked up): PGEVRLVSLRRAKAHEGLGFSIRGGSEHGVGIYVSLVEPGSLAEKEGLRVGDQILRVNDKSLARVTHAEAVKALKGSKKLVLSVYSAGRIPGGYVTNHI

[13] = target: MAGI2_5, Q86UL8
MAGI2_5, Q86UL8, sequence (Q86UL8 915-1017): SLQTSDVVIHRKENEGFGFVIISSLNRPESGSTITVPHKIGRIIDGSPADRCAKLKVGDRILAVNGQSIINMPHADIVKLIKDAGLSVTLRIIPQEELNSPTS

[14] = target: T7, PCLO, Q9Y6V0
T7 sequence (Q9Y6V0 4491-4600, limits assumed, looked up): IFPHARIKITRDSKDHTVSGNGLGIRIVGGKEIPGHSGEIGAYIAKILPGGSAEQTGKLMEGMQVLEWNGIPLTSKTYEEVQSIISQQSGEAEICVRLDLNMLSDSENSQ

[15] = target: ARHGEF12, Q9NZN5-2
ARHGEF12, Q9NZN5-2, sequence (Q9NZN5 other isoform, or with tags, fused parts or gaps): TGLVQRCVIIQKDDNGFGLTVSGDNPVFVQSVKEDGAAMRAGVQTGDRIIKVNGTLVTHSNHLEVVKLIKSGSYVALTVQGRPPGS

[16] = target: T8, LRRC7, Q96NW7
T8 sequence (Q96NW7 1440-1537, limits assumed, looked up): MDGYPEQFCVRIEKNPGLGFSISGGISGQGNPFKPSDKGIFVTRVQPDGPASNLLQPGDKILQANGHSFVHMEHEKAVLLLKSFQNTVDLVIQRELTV

[17] = target: AHNAK1, Q09666
AHNAK1, Q09666, sequence (Q09666 4-100): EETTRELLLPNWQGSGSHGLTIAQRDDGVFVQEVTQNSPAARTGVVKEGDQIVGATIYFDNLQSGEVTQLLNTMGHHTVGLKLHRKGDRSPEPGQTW

[18] = target: T9, TX1BP3, O14907
T9 sequence (O14907 10-122, limits assumed, looked up): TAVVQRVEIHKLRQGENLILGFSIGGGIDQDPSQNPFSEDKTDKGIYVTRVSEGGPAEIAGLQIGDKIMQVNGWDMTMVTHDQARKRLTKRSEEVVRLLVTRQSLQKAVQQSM

[19] = target: T10, DFNB31_2, Q9P202
T10 sequence (Q9P202 274-371, limits assumed, looked up): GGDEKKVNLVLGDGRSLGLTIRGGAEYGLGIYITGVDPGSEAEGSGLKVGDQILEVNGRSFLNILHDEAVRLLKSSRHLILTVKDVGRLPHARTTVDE

[20] = target: T11, SYNJ2BP, P57105
T11 sequence (P57105 8-110, limits assumed, looked up): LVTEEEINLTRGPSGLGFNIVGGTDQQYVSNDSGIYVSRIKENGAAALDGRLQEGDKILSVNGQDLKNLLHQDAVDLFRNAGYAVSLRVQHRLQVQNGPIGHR

[21] = target: T12, HTRA3, P83110
T12 sequence (P83110 354-453, limits assumed, looked up): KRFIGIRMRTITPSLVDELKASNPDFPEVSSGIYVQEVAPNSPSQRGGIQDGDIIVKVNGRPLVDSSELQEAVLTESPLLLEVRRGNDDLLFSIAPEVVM

[22] = target: T13, ARHGEF11, O15085
T13 sequence (O15085 42-136, limits assumed, looked up): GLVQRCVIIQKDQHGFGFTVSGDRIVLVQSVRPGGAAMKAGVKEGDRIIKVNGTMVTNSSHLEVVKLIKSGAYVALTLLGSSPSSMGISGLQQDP

[23] = target: MAGI2_2, Q86UL8
MAGI2_2, Q86UL8, sequence (Q86UL8 410-522): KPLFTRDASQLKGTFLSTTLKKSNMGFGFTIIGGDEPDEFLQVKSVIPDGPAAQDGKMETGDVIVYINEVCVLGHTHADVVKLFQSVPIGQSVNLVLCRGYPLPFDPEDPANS

[24] = plain residues with an end cap or a label only (N-terminal biotin on a linker: ttds)
[25] = plain residues with an end cap or a label only (N-terminal biotin on a linker: ado-ado)
[26] = plain residues with an end cap or a label only (N-terminal biotin on a linker: ahx)

GORASP1, Q9BQQ3, sequence (Q9BQQ3 1-208): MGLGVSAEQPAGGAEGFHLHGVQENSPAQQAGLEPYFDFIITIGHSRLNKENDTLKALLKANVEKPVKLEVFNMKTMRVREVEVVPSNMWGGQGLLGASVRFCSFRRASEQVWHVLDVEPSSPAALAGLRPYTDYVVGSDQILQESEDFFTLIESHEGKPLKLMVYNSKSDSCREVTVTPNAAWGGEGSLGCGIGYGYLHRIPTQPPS

pKd [1, 25]: below the threshold | pKd [2, 25]: below the threshold | pKd [3, 25]: below the threshold | pKd [4, 25]: below the threshold | pKd [5, 25]: below the threshold | pKd [6, 25]: below the threshold | pKd [7, 25]: below the threshold | pKd [8, 25]: below the threshold | pKd [9, 25]: below the threshold | pKd [10, 25]: below the threshold | pKd [11, 25]: below the threshold | pKd [12, 25]: 3.48 | pKd [13, 25]: below the threshold | pKd [14, 25]: below the threshold | pKd [15, 25]: below the threshold | pKd [16, 25]: below the threshold | pKd [17, 25]: below the threshold | pKd [18, 25]: below the threshold | pKd [19, 25]: below the threshold | pKd [20, 25]: below the threshold | pKd [21, 25]: below the threshold | pKd [22, 25]: below the threshold | pKd [23, 25]: below the threshold
Binder: EKPIDSETKM [SLC1A3, P43003]

pKd [1, 26]: 3.56 | pKd [2, 26]: 3.88 | pKd [3, 26]: below the threshold | pKd [4, 26]: below the threshold | pKd [5, 26]: below the threshold | pKd [6, 26]: 3.87 | pKd [7, 26]: below the threshold | pKd [8, 26]: below the threshold | pKd [9, 26]: below the threshold | pKd [10, 26]: 3.61 | pKd [11, 26]: below the threshold | pKd [12, 26]: below the threshold | pKd [13, 26]: 3.96 | pKd [14, 26]: below the threshold | pKd [15, 26]: below the threshold | pKd [16, 26]: below the threshold | pKd [17, 26]: below the threshold | pKd [18, 26]: below the threshold | pKd [19, 26]: below the threshold | pKd [20, 26]: below the threshold | pKd [21, 26]: below the threshold | pKd [22, 26]: below the threshold | pKd [23, 26]: below the threshold
Binder: KEYDDELTFF [USH1C, Q9Y6N9]

The remaining lines, values behind:

Binder: PFRSRSPSEV [GPR6, P46095]
pKd [1, 24]: below the threshold | pKd [2, 24]: below the threshold | pKd [3, 24]: below the threshold | pKd [4, 24]: 3.87 | pKd [5, 24]: below the threshold | pKd [6, 24]: below the threshold | pKd [7, 24]: below the threshold | pKd [8, 24]: below the threshold | pKd [9, 24]: below the threshold | pKd [10, 24]: below the threshold | pKd [11, 24]: below the threshold | pKd [12, 24]: below the threshold | pKd [13, 24]: below the threshold | pKd [14, 24]: below the threshold | pKd [15, 24]: below the threshold | pKd [16, 24]: below the threshold | pKd [17, 24]: below the threshold | pKd [18, 24]: 3.61 | pKd [19, 24]: below the threshold | pKd [20, 24]: 4.18 | pKd [21, 24]: below the threshold | pKd [22, 24]: below the threshold | pKd [23, 24]: below the threshold

Binder: KLVIKTETTV [RASSF6, Q6ZTQ3]
pKd [1, 24]: below the threshold | pKd [2, 24]: below the threshold | pKd [3, 24]: below the threshold | pKd [4, 24]: 5.55 | pKd [5, 24]: below the threshold | pKd [6, 24]: below the threshold | pKd [7, 24]: below the threshold | pKd [8, 24]: below the threshold | pKd [9, 24]: below the threshold | pKd [10, 24]: 5.53 | pKd [11, 24]: below the threshold | pKd [12, 24]: below the threshold | pKd [13, 24]: 3.77 | pKd [14, 24]: below the threshold | pKd [15, 24]: 3.82 | pKd [16, 24]: below the threshold | pKd [17, 24]: below the threshold | pKd [18, 24]: 3.72 | pKd [19, 24]: below the threshold | pKd [20, 24]: 4.97 | pKd [21, 24]: below the threshold | pKd [22, 24]: 3.91 | pKd [23, 24]: 5.11

Binder: DAAHHDESNC [FMNL3, Q8IVF7]
pKd [1, 25]: below the threshold | pKd [2, 25]: 3.99 | pKd [3, 25]: below the threshold | pKd [4, 25]: below the threshold | pKd [5, 25]: below the threshold | pKd [6, 25]: below the threshold | pKd [7, 25]: below the threshold | pKd [8, 25]: below the threshold | pKd [9, 25]: 3.68 | pKd [10, 25]: 4.09 | pKd [11, 25]: below the threshold | pKd [12, 25]: below the threshold | pKd [13, 25]: below the threshold | pKd [14, 25]: below the threshold | pKd [15, 25]: below the threshold | pKd [16, 25]: below the threshold | pKd [17, 25]: below the threshold | pKd [18, 25]: below the threshold | pKd [19, 25]: below the threshold | pKd [20, 25]: 3.5 | pKd [21, 25]: below the threshold | pKd [22, 25]: below the threshold | pKd [23, 25]: below the threshold

Binder: SHSSKGETAV [FZD7, O75084]
pKd [1, 24]: 3.48 | pKd [2, 24]: below the threshold | pKd [3, 24]: 3.58 | pKd [4, 24]: 4.78 | pKd [5, 24]: below the threshold | pKd [6, 24]: below the threshold | pKd [7, 24]: 3.55 | pKd [8, 24]: below the threshold | pKd [9, 24]: 3.62 | pKd [10, 24]: 4.53 | pKd [11, 24]: below the threshold | pKd [12, 24]: 3.65 | pKd [13, 24]: below the threshold | pKd [14, 24]: below the threshold | pKd [15, 24]: 3.97 | pKd [16, 24]: below the threshold | pKd [17, 24]: below the threshold | pKd [18, 24]: 3.89 | pKd [19, 24]: below the threshold | pKd [20, 24]: 5.08 | pKd [21, 24]: 3.96 | pKd [22, 24]: 4.3 | pKd [23, 24]: 4.67
